The text below walks through data of US20230227559A1.

This experiment has as its target His-tagged ectodomains of hFcγRIIIA variant V158 (human) (UniProt P08637). Nature of the experiment: SPR (ProteON), His-tagged hFcγRIIIA V158 ectodomains on chip, mAb injected.

His-tagged ectodomains of hFcγRIIIA variant V158 (human), sequence (P08637 other isoform, or with tags, fused parts or gaps mutant): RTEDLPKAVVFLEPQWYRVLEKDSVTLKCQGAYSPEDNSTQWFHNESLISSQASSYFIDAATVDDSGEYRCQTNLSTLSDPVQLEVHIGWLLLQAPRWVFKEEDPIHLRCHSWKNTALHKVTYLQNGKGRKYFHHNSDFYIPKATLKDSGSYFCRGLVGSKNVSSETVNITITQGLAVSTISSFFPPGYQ

Usually Kd stands for the free concentration of one partner at which half of the binding sites on the other are occupied at equilibrium, for simple one-to-one binding. Usually koff stands for the rate constant with which the complex falls apart. One may read the kon as a measure of how fast the partners come together. As to Chimeric 3G8 hIgG1 (antibody), the dissociation constant Kd was found to be 2.1 nM, the off-rate (koff) turned out to be 0.00021 s⁻¹ and the association rate constant (kon) is 300000 M⁻¹ s⁻¹.
On the same counts, the results for “Chimeric 3G8 hIgG1 N297A format (antibody)” are 2.88 nM, 0.0003 s⁻¹ and 110000 M⁻¹ s⁻¹.
